For one variant, Kd results are on record in publication PMC11093223 (2024).

One may read the Kd as the constant that tells how readily two partners part at equilibrium.

B1: syntaxin-16 (209–221) peptide [human] / TBC1D23 C-terminal domain [mouse] (parent complex)
chain 1: DDNTLYHRGFTED
chain 2: DRKEVVNIQTWINKPDIKHHFPCKEVKESGHMFPSHLLVTATHMYCLREILSRKGLAYIQSRQALNSVVKITSKKKHPELITFKYGNSSASGIEILAIERYLIPNAGDATRAIKQQIMKVLDALES

In the test the parent is B1. Briefly: ITC.
As to chain 1 R8A, the Kd came to 10.3 µM.
